B1: ATG13(363-C) (domain or fragment, human, UniProt O75143 363-517, looked up)
chain: HDVLETIFVRKVGAFVNKPINQVTLTSLDIPFAMFAPKNLELEDTDPMVNPPDSPETESPLQGSLHSDGSSGGSSGNTHDDFVMIDFKPAFSKDDILPMDLGTFYREFQNPPQLSSLSIDIGAQSMAEDLDSLPEKLAVHEKNVREFDAFVETLQ
notes: ATG13, human, residue 363 to the C terminus
B2: MBP-ATG13MR (domain or fragment, human, UniProt O75143 363-460, looked up)
chain: HDVLETIFVRKVGAFVNKPINQVTLTSLDIPFAMFAPKNLELEDTDPMVNPPDSPETESPLQGSLHSDGSSGGSSGNTHDDFVMIDFKPAFSKDDILP
notes: ATG13, human, middle region, residues 363-460; not shown: MBP, N-terminal, kept
B3: FIP200NTD (domain or fragment, human, UniProt Q8TDY2 1-640, looked up)
chain: MKLYVFLVNTGTTLTFDTELTVQTVADLKHAIQSKYKIAIQHQVLVVNGGECMAADRRVCTYSAGTDTNPIFLFNKEMILCDRPPAIPKTTFSTENDMEIKVEESLMMPAVFHTVASRTQLALEMYEVAKKLCSFCEGLVHDEHLQHQGWAAIMANLEDCSNSYQKLLFKFESIYSNYLQSIEDIKLKLTHLGTAVSVMAKIPLLECLTRHSYRECLGRLDSLPEHEDSEKAEMKRSTELVLSPDMPRTTNESLLTSFPKSVEHVSPDTADAESGKEIRESCQSTVHQQDETTIDTKDGDLPFFNVSLLDWINVQDRPNDVESLVRKCFDSMSRLDPRIIRPFIAECRQTIAKLDNQNMKAIKGLEDRLYALDQMIASCGRLVNEQKELAQGFLANQKRAENLKDASVLPDLCLSHANQLMIMLQNHRKLLDIKQKCTTAKQELANNLHVRLKWCCFVMLHADQDGEKLQALLRLVIELLERVKIVEALSTVPQMYCLAVVEVVRRKMFIKHYREWAGALVKDGKRLYEAEKSKRESFGKLFRKSFLRNRLFRGLDSWPPSFCTQKPRKFDCELPDISLKDLQFLQSFCPSEVQPFLRVPLLCDFEPLHQHVLALHNLVKAAQSLDEMSQTITDLLSEQK
notes: FIP200 (RB1CC1), human, N-terminal domain, residues 1-640 of 1,594; the form printed without a tag in NSEM, MALS, HDX-MS and cryo-EM samples; also called FIP200 N-terminal domain; untagged FIP200NTD
B4: FIP200NTD–MBP (domain or fragment, human, UniProt Q8TDY2 1-640, looked up)
chain: B3 chain
notes: FIP200 (RB1CC1), human, N-terminal domain, residues 1-640 of 1,594; also called FIP200(N-640)–MBP; FIP200-MBP; not shown: GST, N-terminal, cleaved; MBP, C-terminal, kept
B5: MBP-FIP200NTD (domain or fragment, human, UniProt Q8TDY2 1-640, looked up)
chain: B3 chain
notes: FIP200 (RB1CC1), human, N-terminal domain, residues 1-640; also called N-terminal MBP–tagged FIP200NTD; not shown: MBP, N-terminal, kept

Assays:
FIP200NTD [1] = molecular target: B3; test: SEC-MALS; Superose 6 Increase 10/300 GL; 50 mM Tris, 150 mM NaCl, 1 mM TCEP, pH 7.8; sample ~6–10 µM, 100 µl injected; details: both partners purified
FIP200NTD [2] = molecular target: B3; test: negative stain EM; purified samples diluted to ~50–200 nM, uranyl acetate stain, 2D classification; MBP tags used to mark positions; details: both partners purified
[3] = molecular target: the molecule itself; test: SEC-MALS; Superose 6 Increase 10/300 GL; 50 mM Tris, 150 mM NaCl, 1 mM TCEP, pH 7.8; sample ~6–10 µM, 100 µl injected
[4] = molecular target: the molecule itself; test: negative stain EM; purified samples diluted to ~50–200 nM, uranyl acetate stain, 2D classification; MBP tags used to mark positions

stoichiometry N (FIP200NTD [1]) | Binder | stoichiometry N [4] | other results
0.5 molecules per molecule of FIP200NTD (2:1 FIP200NTD:binder) | B1 |  | 
0.5 molecules per molecule of FIP200NTD (2:1 FIP200NTD:binder) | B2 |  | stoichiometry N (FIP200NTD [2]): 1 per FIP200NTD dimer
 | B3 |  | stoichiometry N [3]: 2
 | B4 | 2 | 
 | B5 | 2 | 

Reference: paper PMC7337493 (The Journal of Cell Biology, 2020)
